Assay results reported in US20250277200.

Tests used:
[1] = tested on: C3a
[2] = tested on: T1, C5a
T1 sequence: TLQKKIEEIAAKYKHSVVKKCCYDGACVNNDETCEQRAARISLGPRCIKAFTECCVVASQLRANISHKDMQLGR

Sequence of CPN1-HSA (chain): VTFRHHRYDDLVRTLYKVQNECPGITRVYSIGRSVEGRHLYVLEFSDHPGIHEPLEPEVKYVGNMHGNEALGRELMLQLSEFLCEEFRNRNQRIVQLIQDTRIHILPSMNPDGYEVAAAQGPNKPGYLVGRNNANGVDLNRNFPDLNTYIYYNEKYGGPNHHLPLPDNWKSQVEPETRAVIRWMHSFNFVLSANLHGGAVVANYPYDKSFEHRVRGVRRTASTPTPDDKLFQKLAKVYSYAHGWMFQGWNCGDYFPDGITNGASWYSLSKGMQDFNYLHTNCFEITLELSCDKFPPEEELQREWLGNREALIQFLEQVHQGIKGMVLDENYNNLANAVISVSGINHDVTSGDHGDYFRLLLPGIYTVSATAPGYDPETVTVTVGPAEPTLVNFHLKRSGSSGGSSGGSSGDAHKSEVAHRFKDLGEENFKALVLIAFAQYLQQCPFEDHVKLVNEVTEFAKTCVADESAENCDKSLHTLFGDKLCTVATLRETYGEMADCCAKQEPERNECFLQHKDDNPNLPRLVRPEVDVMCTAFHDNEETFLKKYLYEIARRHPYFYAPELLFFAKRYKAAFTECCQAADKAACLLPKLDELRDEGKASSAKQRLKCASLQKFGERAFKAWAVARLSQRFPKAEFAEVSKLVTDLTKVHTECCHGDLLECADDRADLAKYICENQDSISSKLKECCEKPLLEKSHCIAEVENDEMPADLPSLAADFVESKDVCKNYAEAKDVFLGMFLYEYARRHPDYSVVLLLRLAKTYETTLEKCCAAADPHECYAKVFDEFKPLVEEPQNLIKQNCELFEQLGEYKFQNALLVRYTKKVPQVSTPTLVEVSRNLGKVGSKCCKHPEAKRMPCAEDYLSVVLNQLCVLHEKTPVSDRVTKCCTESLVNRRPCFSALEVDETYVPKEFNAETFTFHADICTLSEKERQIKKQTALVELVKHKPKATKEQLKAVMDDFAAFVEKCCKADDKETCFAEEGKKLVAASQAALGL
Sequence of C3a (chain, as listed by the source): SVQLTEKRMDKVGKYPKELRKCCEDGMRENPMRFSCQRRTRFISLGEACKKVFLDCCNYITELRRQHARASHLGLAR

CPN1-HSA
% Cleavage (GPCR assay, purified enzyme) [1]: 100% | % Cleavage (GPCR assay, supernatant) [1]: 100% | Kcat/KM (Arg LC-MS/MS, purified enzyme) [1]: 800000 M⁻¹ s⁻¹ | % Cleavage (GPCR assay, purified enzyme) [2]: 82% | % Cleavage (GPCR assay, supernatant) [2]: 97%
